T1: OVA (UniProt P01012 2-386)
T1 sequence (looked up): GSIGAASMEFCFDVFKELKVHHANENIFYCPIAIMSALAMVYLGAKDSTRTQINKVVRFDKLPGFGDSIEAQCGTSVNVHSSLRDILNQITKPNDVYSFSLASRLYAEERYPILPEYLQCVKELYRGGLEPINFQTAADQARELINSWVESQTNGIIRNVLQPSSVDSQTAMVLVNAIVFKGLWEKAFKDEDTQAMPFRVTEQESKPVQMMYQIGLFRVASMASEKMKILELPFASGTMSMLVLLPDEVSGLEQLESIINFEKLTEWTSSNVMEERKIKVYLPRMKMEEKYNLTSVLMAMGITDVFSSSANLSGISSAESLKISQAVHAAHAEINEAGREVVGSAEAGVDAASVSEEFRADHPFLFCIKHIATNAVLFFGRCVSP

B1: light chain of i41SL1-2 antibody (i41SL1-2-L) (protein)
VL: DIVMTQTQLTLTINIGQPASISCKSSQSLLDSDGKTYLNWLFQRPGQSPKRLIYLVSKLDSGVPDRFTGSGSGTDFTLKISRVEAEDLGVYYCWQGTHFPLTFGAGTKLELRRA
B2: heavy chain of i41SL1-2 antibody (i41SL1-2-H) (protein)
VH: QVQLQHSGAELVRPGSSVKVSCKALGYTSTDYEIHWVKQTPVRGLEWIGAIHPGSDVIVYNQKFKGTATLTADKSSSTAYMELRSLTSEDSAVYYCTREGGSVDYVWGQGTLVTVSA
B3: monoclonal antibody ECL2B-2 (antibody, V domains shown)
VH: DVKLVESGGGLVKPGGSLKLSCAASGFTFSRYTMSWVRQTPEKRLEWVATISSGGSYTYYPDSVKGRFTISRDIAKNTLYLQMSSLKSEDTALYYCTREGGYGAFASWGQGTLVTVS
VL: DVLMTQTPLSLPVSLGDQASISCRSSQSIVHSNGNTYLEWYLQKPGQSPKLLIYKVSNRFSGVPDRFSGSGSGTDFTLKINRVAAEDLGVYYCFQGSHVPWTFGGGTKLEIKR
notes: also called intact monoclonal antibody ECL2B-2
B4: light chain of ECL2B-2 (ECL2B-2-L) (protein)
VL: DVLMTQTPLSLPVSLGDQASISCRSSQSIVHSNGNTYLEWYLQKPGQSPKLLIYKVSNRFSGVPDRFSGSGSGTDFTLKINRVAAEDLGVYYCFQGSHVPWTFGGGTKLEIKRA
B5: light chain of ECL2B-4 (ECL2B-4-L) (protein)
VL: DVLMTQTPLSLPVSLGDQASISCRSSQSIVHSNGNTYLEWYLQKPGQSPKFLIYKVSNRFSGVPDRFSGSGSGTDFTLKISRVETEDLGVYYCFQGSHVPWTFGGGTKLEIKRA
B6: monoclonal antibody ECL2B-3 (antibody, V domains shown)
VH: QIQLVQSGPELKKPGETVKISCKASGYTFTNYGMNWVKQAPGKGLEWMGWINTYTGEPTYAGDFMGRSVFSLETSASTAYLQINNLENKDTATYICARSGSPYAMDYWGQGTSVTVS
VL: DIALTQSPASLAVSLGQRATISCKASQSVDYDGDSYMNWFQQKPGQPPKLLIYAASNLESGIPGRFSGSGSGTDFTLNIHPVEEEDIATYYCQQSYEDPFTFGSGTILDIKR

Columns and labels:
[1] = molecular target: CDR1 antigen peptide (…), synthetic peptide of CDR 1 of the light chain of antibody 41S-2; assay: cell-based or functional assay
[2] = molecular target: HSA (human, UniProt P02768 25-609); assay: ELISA (immunoassay of Experiment 3-3), absorbance at 405 nm
From the text: (§1) The blocking was applied with 2% gelatin at room temperature.

[3] = molecular target: T1, OVA; assay: as above
From the text: as §1

[4] = molecular target: ECL2B peptide (…), partial peptide of CCR-5 (human); assay: cell-based or functional assay
[5] = molecular target: ECL2B peptide (sequence No.38) as named in Experiment 3-9 (human); assay: cell-based or functional assay
[6] = molecular target: peptide TP41-1 of a retention region of gp41 (HIV-1) (…) (HIV-1); assay: cell-based or functional assay

HSA, sequence (P02768 25-609): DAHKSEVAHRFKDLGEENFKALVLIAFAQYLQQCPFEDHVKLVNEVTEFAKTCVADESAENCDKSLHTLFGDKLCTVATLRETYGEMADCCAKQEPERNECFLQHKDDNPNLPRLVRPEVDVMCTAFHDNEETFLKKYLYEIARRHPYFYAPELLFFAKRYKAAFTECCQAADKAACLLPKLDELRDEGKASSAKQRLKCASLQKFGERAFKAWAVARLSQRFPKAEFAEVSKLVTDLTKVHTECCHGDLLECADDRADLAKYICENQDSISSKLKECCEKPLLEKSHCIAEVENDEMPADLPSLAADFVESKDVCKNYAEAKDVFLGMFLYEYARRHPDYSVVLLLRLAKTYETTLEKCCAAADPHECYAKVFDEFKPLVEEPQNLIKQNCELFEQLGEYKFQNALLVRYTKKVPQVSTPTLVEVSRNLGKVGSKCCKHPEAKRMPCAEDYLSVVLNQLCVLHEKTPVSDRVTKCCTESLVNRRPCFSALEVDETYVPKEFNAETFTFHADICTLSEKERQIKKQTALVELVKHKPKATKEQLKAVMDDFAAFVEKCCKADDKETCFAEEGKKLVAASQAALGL
ECL2B peptide (…), partial peptide of CCR-5 (human), sequence (peptide, as listed by the source): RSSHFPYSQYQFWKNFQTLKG

| Binder | Km [1] [µM] | kcat [1] [s⁻¹] | kcat/Km [1] [M⁻¹ s⁻¹] | binding result [2] | binding result [3] | also measured |
| --- | --- | --- | --- | --- | --- | --- |
| B1 | 2 | 0.0102 | 5170 |  |  |  |
| B2 | 13 | 0.0103 | 812 |  |  |  |
| B3 |  |  |  | no binding | no binding |  |
| B4 |  |  |  |  |  | time until the ECL2B peptide disappeared (RP-HPLC) [4]: 90 h |
| B5 |  |  |  |  |  | Km [5]: 35 µM; Vmax [5]: 0.31 µM/min; kcat [5]: 0.012 s⁻¹; kcat/Km [5]: 367 M⁻¹ s⁻¹; Km [6]: 12.5 µM; Vmax [6]: 0.0624 µM/min; kcat [6]: 0.00267 s⁻¹; kcat/Km [6]: 208 M⁻¹ s⁻¹ |
| B6 |  |  |  | no binding | no binding |  |

Source: patent US20060030015A1 (published 2006)
